Test results from patent US20050124794A1, “Cell surface tropomyosin as a target of angiogenesis inhibition” (priority 2002, published 2005).

What was measured:
[1] = target: Chicken gizzard tropomyosin (Tpm), purified (chicken); assay: competition ELISA against 10 nM biotin-HKa on immobilized chicken gizzard Tpm, 10 uM ZnCl2; Kd by non-linear regression
[2] = target: Chicken gizzard tropomyosin (Tpm), purified (chicken); assay: plate assays on immobilized chicken gizzard Tpm (FIGS. 14 and 15)
[3] = target: Chicken gizzard tropomyosin (Tpm), purified (chicken); assay: competition with 10 nM biotin-HKa on plate coated with chicken gizzard Tpm, 10 µM ZnCl2
[4] = target: Tropomyosin (Tpm) exposed on the surface of proliferating human umbilical vein endothelial cells (human); assay: biotin-HKa on unfixed subconfluent HUVEC in 96-well plates, 4 °C, with and without 10 µM Zn2+, streptavidin-peroxidase; nonlinear regression

Chicken gizzard tropomyosin (Tpm), purified (chicken), sequence (chain, as listed by the source limits assumed): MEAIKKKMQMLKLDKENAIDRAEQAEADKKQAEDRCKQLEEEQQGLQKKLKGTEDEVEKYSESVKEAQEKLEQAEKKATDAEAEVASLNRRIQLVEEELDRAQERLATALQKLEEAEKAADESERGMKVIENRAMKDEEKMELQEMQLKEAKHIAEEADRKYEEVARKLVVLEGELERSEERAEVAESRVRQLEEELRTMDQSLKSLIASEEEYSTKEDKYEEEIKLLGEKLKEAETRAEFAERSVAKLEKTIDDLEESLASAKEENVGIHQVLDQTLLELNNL
Endostatin (ligand), sequence (P39060 1572-1754): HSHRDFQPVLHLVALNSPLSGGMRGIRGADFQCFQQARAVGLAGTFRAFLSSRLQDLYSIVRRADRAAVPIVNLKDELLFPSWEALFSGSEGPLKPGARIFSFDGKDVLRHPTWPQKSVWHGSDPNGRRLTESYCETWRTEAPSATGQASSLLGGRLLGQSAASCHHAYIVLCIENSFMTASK

Row | Kd [1] [nM] | fold lower affinity than HKa or HKa-D5 [2] [fold] | Kd [3] [nM] | Kd [4] [nM] | Substance
1 | 1970 | 1000 | 2000 |  | Endostatin (ligand)
2 |  |  |  | 2.5 | Two-chain high molecular weight kininogen (HKa) (from UniProt P01042 19-380; P01042 390-644) (ligand)
